# Test: yeast display, Sf9 membrane polyspecificity reagent, FACS + sequencing; frameworks hold sequencing errors
# Method in brief: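 Using colony PCR, genes from sorted yeast display clones were amplified, then sequenced on MiSeq at 2 × 250 and filtered by CDR length. The clones had been stained with 10% biotinylated, detergent-solubilized Sf9 membrane reagent for 1 hour at 4 °C and sorted by FACS into low and high (top ~1%) gates on anti-HA and streptavidin fluorescence. Polyreactivity labels come from the gate of origin.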
row,Sequence,polyreactivity (PSR sort gate)
1,QVQLVESGGGLVQAGGSLRLSCAASGFIFYEYAMGWYRQAPGKERELVAAISSGGDTNYADSVKGRFTISRDNANNTVYLQMNSLKPEDTAVYYCAKDYSDPGWAEYDYWGQGTQVTVSS,low polyreactivity
2,QVQLVESGGGLVQAGGSLRLSCAASGSTSWYDMGWYRQPPGKERELVASISSGDSTNYADSVKGRFTISRDNAKNTVYLQMNSLKPDDTAVYYCAADFNVGFVWGDDSDYWGQGTQVTVSS,low polyreactivity
3,QVQLVESGGGLVQAGGSLRLSCAASGFTFGWYAMGWYRQAPGKERELVAAIRSDGSTYYADSVKGRFTISRDNAKNTVYLQMNSLKPEDTAVDYCAAVYYQRGWEFDYWGQGTQVTVSS,low polyreactivity
4,QVQLVESGGGLVQAGGSLRLSCAASGGTFPVYALGWYRQAPGKERELVAAISYSGVTTYYADSVKGRFTISRDNAKNTVYLQMNSLKPEDTAVYYCNADWRRWYIFSYDYWGQGTQVTVSS,low polyreactivity
5,QVQLVESGGGLVQAGGSLRLSCAASGSTLSRYVMGWSRHAPGKERELVASISWSGTRTYYADSVKGRFTISRDNAKNTVYLQMNSLIPEDTAVYYCNAVSRGGRLYDYWGQGTQVTVSS,high polyreactivity
6,QVQLVESGGGIVQAGGSLRLICAASGLILYGYTMGWYRQAPGKDRQLVAAISRGGGGTYYADSVKGRFTISRDNVKNTVYLQINSLKPEDTAVYYCAAYVYSLGGEYFYWGQGTLVTVSS,high polyreactivity
7,QVQLVESGGGLVQAGGSLRLICAASGRTFYYNAMGWYRQAPGKERELVAAINRGTGGTFYADSVKGRFTISRDNAKNTVYLQMNSLKPEDTAVYYCAADLDGSSEYEYWGQGTQVTVSS,low polyreactivity
8,QVQLVESGGGLVQAGGSLRLSCAASGFTFDIYAMGWYRQAPGKEREMVADITSGGSTDYADSVKGRFTISRDNAKNTVYLQMNSLKPEDTAVYYCNGAVFYDPEWQYDYWGQGSQVTVSS,low polyreactivity
9,QVQLVESGGGLVQAGGSLRLSCAASGRIFLYTAMGWYRQAPGKERELVAAIDGGGTTYADSVKGRFTISRDNAKNTVYLQMNSLKPEDTAVYYCAGDWYYQYSIYRYGYWGQGTQVTVSS,low polyreactivity
10,QVQLVESGGGLVQAGGSLRLSCAASGRIFSRYAMGWYRQAPGKERELVAAITQSGTSTYYADSVKGRFTISRDNAKNTVYLQMNSLKPEDTAVYYCNAYRQYRYDYWGQGTQVTVSS,low polyreactivity
11,QVQLVESGGGLVQAGGSLRLSCAASGFTFYGYVMGWYRQAPGKERDLVAVISRSGDRTYYADSVKGRFTISRDNAKNTVYFQMNSLKPEDTAVYYCAARVYLLGWWTGNGYWGQGTQVTVSS,high polyreactivity
12,QVQLVESGGGLVQAGGSLRLSCAASGRTFYNAMGWYRQAPGKERELVAGIRWSGASTYYADSVKGRFTISRDNAKNTVYLQMNSLKPEDTAVYYCAARRHSTRLRLTYDYWGQGTQVTVSS,high polyreactivity
13,QVQLVDSGGGLVQAGGSLRLSCAASGFTFSYYVMGWYRQAPGKERELVAAITSSGGSTYYADSVKGRFTISRDNAKNTVSLQMISRNPEDTAVYYCNALVLSSEYGYWGLGTQVTVSS,high polyreactivity
14,QVQLVESGGGLVQAGGSLRLSCAASGSTFDYNAMGWYRQAPGKERELVATITSTGRTNYADSVKGRFTISRDNAKNTVYLQMNSLKPEDTAVYYCAKRTFFGKARGGPTYRLYYWGQGTQVTVSS,high polyreactivity
15,QVQLVESGGGLVQAGGSLRLSCAASGSIFGPYAMGWYRQAPGKEREVVAAINSGGSTNYADSVKGRFTISRDNAKNTVYLQMNSLKPEDTAVYYCNAADERSQGWVGYDHWGQCTQVTVSS,low polyreactivity
16,QVQLVESGGGLVQAGGSLRLSCAASVSTFGDYTMGWYRQAPGKERELVAAITLTGGSTYYADSVKGRFTISRDNAKNTVYLQMNSLKPEDTAVYYCNTDVIRWVGGTWHRYYYWGQGTQVTVSS,low polyreactivity
17,QVQLVESGGGLVQAGGSLRLSCAASGFTFFEDNAMGWYRQAPGKERELVAAITSGGSTNYADSVKGRFTFSRDNAKNTVYLQMNSLKPEDTAVYYCAKDRVPLKTRFYYFPWGYDYWGQGTQVTVSS,low polyreactivity
18,QVQLVESGGGLVQAGGSLILSCAASYAMGWYRQAPGKERELVATIKSGGVSTYYADSVKGRFTISRDNAKNTVYLQMNCLKPEDTAVYDCAANASHSTSADYDYWGQGTQVTVSS,low polyreactivity
19,QVHLVESVGGLVQAGGILRLSCAASGFTFYSYAMGCYRQAPGNERELVAAITRSGGNTYYADSVKGRFTISRDNAKNTVYLQMNSLKPEDTAVYYCDATGKRISPSHYYCGQGTQVTVSS,high polyreactivity
20,QVQLVESGGGLVQAGGSLRLSCAASGRTFGIYAMGWYRQAPGKERELVAAISSDASTSYADSVKGRFTISRDNAKNTVYLQMNSLKPEDTAVYYCAADPGPYYDWGYDYWGQGTQVTVSS,low polyreactivity
21,QVQLVESGGGLVQAGGSLRLSCAASGFTFWYYAMGWYRQAPGKERELVAAITYTGDRTYYADSVKGRFTISRDNAKNTVYLQMNSLKREDTAVYYCDVYLGIRSGTANDYWGQGTQVTVSS,high polyreactivity
22,QVQLVESGGGLVQAGGSLRLSCAASGFTFAYYAMGSYRQAPGKERELVAAIRKSGATTYYADSVKGRFTISRDNSKNTVYLQMISLKPEDTAVYYCNAVVKSSSRGSIAHPGYDYWGQGTQVTVSS,high polyreactivity

row,Sequence,polyreactivity (PSR sort gate)
1,QVQLVESGGGLVQAGGSLRLSCAASGRTFGEYAMGWYRQAPGKERELVAAITGGDSTNYADSVKGRFTISRDNAKNTVYFQMNSLKPEDTAVYYCAAYGVKVLWTLTTYDYWGQGTQVTVSS,low polyreactivity
2,QVQLVESGGCLVQAGGSLRLSCAASGSTFRYNAMGWYRPAPGKERELVAAITSSGGRTYYADSVKGRFTISRDNAKNTVYLQMNSLKPEDTAVYYCARRYLSVRGDSWGQGTQVTVSS,high polyreactivity
3,QVQLVESGGGLVQAGGSLRLSCAASGSTFKRNAMGWYRQAPGKERELVAAITYSGTRTYYADSVKGRFTISRDNAKNTVYLQMNSLKPEDTAVYYCAVSVPYGMDYWGQGTQVTVSS,high polyreactivity
4,QVQLVESGGGLVQAGGSLRLSCAASGSTFQYYAMGWYRQAPGKERELFAVITGAGGTNYADSVKGRFTISRDNAKNTVYLQMNSLKPEDTAVYYCAARSPGTRWGDYDYWGQGTQVTVSS,low polyreactivity
5,QVQLVESGGGLVQAGGSLRLSCAASGIIFLDNVMRWYRQAPGKERELVAAISSSGGSTYYADSVKGRFTISRDNAKNTVYLQMNSLKPEDTAVYYCAAYFRRGFYYWGQGTQVTVSS,high polyreactivity
6,QDQLVESGGGLVQAGGSLRISCAASGSIFDVNAMGWYRQAPGKERELVAAISDSGGSTYYADSVKGRFTISRDNAKNTVYLEMNSLKPVDTAVYYCNADWSWYNYYDFDYWGQGTQVTVSS,low polyreactivity
7,QVHLVESGGGLVQAGGSLRLSCAASGSTFTRNVMGWYRQAPGKERELVASISRSGGRTYYADSVKGRFTISRDNAKNTVYLQMNSLKPEDTAVYYCAAKSFYYLDPYDYWGQGTQVTVSS,high polyreactivity
8,QVQLAESGGRLVQAGGRLRLSCAASGRTSTCYAMGWYRQPPGKERELVAAISYRGGSTYYADSVKGRFTISRDNAKNSVYLHLNSLKPEDTAVYYCAAKWYWRGDYWGQGTQVTVSS,high polyreactivity
9,QVQHVESGGGLVQAGGSLRLSCAASGRTFSRYAMGWYRQAPGKERELVAAISSRGGSTYYADSVKGRFTISRDYAKNTVYLQMNSLKPEDTAVYYCNADSKVDQYGYDYWGQGTQVTVSS,high polyreactivity
10,QVQHVESVGGLVQAGGSLRLSCAASGSIFEYNAMGWYRQAPGKERELVAAISWSSGTTYYADSVKGRFTISRDNAKNTVYLQMNSLKPEDTAVYYCNAGRYGKDSDYWGQGTQVTVSS,low polyreactivity
11,QVQLVESGGGLVQAGGSRRLSWAASGSTFPRNAMGWYRQAPGKERELVAAISSGGSTYYADSVKWRFTISRDNAKNTVYLQMNSLKPEDTAVYYCAARLYWPIIVVDLYGYDYWGEGTQVTVSS,low polyreactivity
12,QVQLVESGGGLVQAGGSLRLSCAASGRTFQPYAMGWYRQAPGKERELVASISRSGGRTYYADSVKGRFTISRDNAKNTVYLQMNSLKPEDTAVYYCAADIPYTRSIKYYYWGQGTQVTVSS,high polyreactivity
13,QVQLVESGGGLVQAGGSLRLSCAASGNTLGYYAMGWYRPAPGKERELVATISDDGTTYYADSVKGRFTISRDNAKNTVSLQMNSLKPEDTAVYYCATDGSAQYSMDYWGQGTQVTVSS,low polyreactivity
14,QVQLVESVGGLVQAGGSLRLICAASGRTFSRNAMGWYRQAPGKERELVAGISWRGTSTYYADSVKGRFTISRDNAKNTVFLQMNSLKPEDTAVYYCNRVFEYWSEYDYWGQGTQVTVSS,high polyreactivity
15,QVQLVQSGGCLVQAGGSLRLSCAASGSTFRYKAMGWYRQAPGKERELVATITGSGGSTYYADSVKGRFTISRDNAKNTVYLQMNSLKAEDTAVYYCNARYKRAAWRYDYWGQGTQVSVSS,high polyreactivity
16,QVKLVYSGGGLVQAGGSLRLSCAASVSIFYYYGMGWYRQAPVKERQLVAAITYRGTRTYYADSGKGRFTFSRDNAKTTVYLQMYSLKAEDTALYYCAAERRIYSSDSWGQGTQVTVSS,high polyreactivity
17,QVQLVESGGGLDQARGSLRLSCAASGRTFYSYAMGWYRQAPGKERELVAAISKRGTSTYYADSVKGRFTISRDNAKNTVYLQMNSLKPEDTAVYYCDAGAYIWDIYSYRWYDYWGQGTQVTVSS,high polyreactivity
18,QVQLVESGGGLVQAGGSLRLSCAASGSIFSSYAMGWYRQAPGKERELVATITSSGGSTYYADSVKGRFTISRDNAKNTVYLQMNSLKPADTAVYYCAASYHTSYSLRRYYYWGQGTQVTVSS,low polyreactivity
19,QVQLVESGGGLVQAGGSLRLSCAASGIIFDDNTMGWYRQAPGKERELVAAISSSGGSTYYADSVKGRFTISRDNAKNTVYLQMNSLKPEDTAVYYCAAAVYYTYPYIVYRNYPEFDYWGQGTQVTVSS,low polyreactivity
20,QVQLVVSGGGLVQEGGSLRLSCAAYGNTFFVYAMGGYRQAPGKERELDASITLSGDTTYYADSVKGRFTISRDNAKNPVYLQMNSLKPEDNAVYYCAAKDIRYDDDYWGQGTQVNVSS,low polyreactivity
21,QVQLVESGGGLVQAGGSLRLSCAASGSIFVDNAMGWYRQAPGKERELVAVITLRSGSTNYADSVKGRFTISRDNAKNTVYLQMNSLKPEDTAVYYCAADETYHDYQRDTDDDYWGQGTQVTVSS,low polyreactivity

# Source: the nanobody polyreactivity screen of Harvey et al. (2022)
